A short description of this series: yeast display, Sf9 membrane polyspecificity reagent, FACS + sequencing; frameworks hold sequencing errors. A digest of the protocol:
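Sorting gates, low and high (top ~1%), were placed on anti-HA fluorescence to track expression and on streptavidin fluorescence to track reagent binding. A clone's polyreactivity label is taken from the gate it came out of. The reagent was 10% biotinylated, detergent-solubilized Sf9 membrane, applied for 1 hour at 4 °C to galactose-induced yeast display cells.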
Turning to “QVQLVESGGGLVQAGGSLRLSGAASGRIFVRNAMGWYRQAPGKERELVADITNGGSTNYADSVKGRFTISRDNAKNTVYLQMNSLKPEDTAVYYCAADTLGVYDGDYWGQGTQVTVSS”, the “polyreactivity (PSR sort gate)” value was “low polyreactivity”.
Turning to “QVQLVESGGGLVQAGGSLRLSGAASGRIFYYNALGWYRPAPGKEREFVAAITWSGTSTNYADSLKGRFTISRDNAKNTVYLQMNSLKPEDTAVYYCAAQLRNSSRTYYRSGYWGQGTQVTVSS”, the “polyreactivity (PSR sort gate)” value is reported as “high polyreactivity”.
Regarding “QVQLVESGGGLVQAGGSLRLSGAASGSIFDIYAMGWYRPAPGKERELVADITISGGSTYYADSVKVRFTISRDNAKNTVYLQMNSLIPEDTAVYYCAADVTVVLGYKYDYWGQGTQVTVSS”, the “polyreactivity (PSR sort gate)” value is “low polyreactivity”.
On to “QVQLVESGGGLVQAGGSLRLSGAASGSTFDIYAMGWYRQPPGKESELVAAITVSGGSTYYADSVKGSFTISRDNAKNTVYLQMNSLKPEDTAVYYCNADWSGWQGWYNYWGQGTQVTVSS”, for which the “polyreactivity (PSR sort gate)” value was “low polyreactivity”.
As to “QVQLVESGGGLVQAGGSLRLSGAASGSTFESYAMGWYRQAPGKERELVAAISWRVGSTYYADSVKGRFTISRDNAKNTVYLQMNSLKPEDTAVYDCASKGRYAHYGGYDYWGQGTQVTVSS”, the “polyreactivity (PSR sort gate)” value is “low polyreactivity”.
The result for “QVQLVESGGGLVQAGGSLRLSGAASGSTFYSYAMGWYRQAPGKERELVAAISGSGASTYYADSVKGSFTISRDNAKNTVYLLMNSLKPEETAVYYCAADKPGIFSRFDYWGQGTQVTVSS” reads “low polyreactivity”; that for “QVQLVESGGGLVQAGGSLRLSGAASGTLYINLMGWYRQATGKERDLVAAISSNGARTYYADSVKGRFTISRDNAKNTVYLQMNSLKPDDTAVYYSNRVASVRARDYDYWGQGTQVTVSS”, “high polyreactivity”.
Then “QVQLVESGGGLVQAGGSLRLSGADSGLTFRRNAMGWYRQAPGNERELVAAIRTGGSTYYADSVKGRFTISRDNAKNTVYLQMNSLKPEDTAVYYCAARSLIGSRLVPMNFWGQGTQVTVSS”, with “high polyreactivity”.
Regarding “QVQLVESGGGLVQAGGSLRLSGSASGIIFIYYTIGWYRQAPGTESELVAVITTSGDGTYYADSVKGRFTISRDNAKNTVYLQMNSLKPEDTAVYYCAASYSTWVSTRNDYWGQGTQVTVSS”, the “polyreactivity (PSR sort gate)” value is given as “low polyreactivity”.
Consider “QVQLVESGGGLVQAGGSLRLSRAASGFIFRVYAMGWYRQAPGKERELVAAITGNGVSTYYADSVKGRFTISRDNAKNTVYLQMNSLKPEDTAVYYCATYGRRWYSSRRLDYWGQGTQVTVSS”, for which the “polyreactivity (PSR sort gate)” value is “low polyreactivity”.
Then “QVQLVESGGGLVQAGGSLRLSRAASGITFRFYAMGWYRQAPGKERQVVARISSSGSRTYYADSVKVRFTISRDNAKNTVYLQMNSLKPEDTAVYYCNAVRRRYQSLLQGDYWGQGTQVTVSS”, with “high polyreactivity”; and “QVQLVESGGGLVQAGGSLRLSRAASGSIFDDYAMGWYRQAPGKERELVAAITSGGSTYYADSVKGRFTMSRDNAKNTVYLQRNSLKPEDTAVYYRATRYHWSSSFAPVGAYGYWGQGTQVTVSP”, with “low polyreactivity”; and “QVQLVESGGGLVQAGGSLRLSRAASGSIFVSNAMGWYRQAPGKERELVAAIRGVDSTYYADSVKGRFTISRDNAKTTVYLQMNSLKPEDTAVYYCATRGPGYPRYYDWGQGTQVTVSS”, with “high polyreactivity”.
The result for “QVQLVESGGGLVQAGGSLRLSRAASGSTFVENAMGWYRQAPGKERELVAAISSSGDSTFYADSVKGRFTISRDNAKNTVYLQMNSLKPEDTAVYYCAADRRINYDGLDMDYWGQGTQVTVSS” reads “low polyreactivity”; that for “QVQLVESGGGLVQAGGSLRLSRDASGIIIYDYDIGWYRKAPGKERELVAAITSSGGSTYYADSVKGRFTLSRDNAKNTVYLQMNSLIPEDTAVYYCAAATRGSGRRYDYWGQGTQVTVSS”, “high polyreactivity”.
The result for “QVQLVESGGGLVQAGGSLRLSSAASGFIFFRYARGWYRQEPGKEREFVAAISWSGGRTYYADSVKGRFTISRDNAKNTVYLQMNSLKPEDTAVYYCAAYPSYWGYGYPGHDYWGQGTQVTVSS” reads “high polyreactivity”.
“QVQLVESGGGLVQAGGSLRLSSAASGFIFGGYSMGWYRQAPGKERELVAAISRSGGSTYYADSVKGRFTISRDNPKNTVYLQMNSLKPEDTAVYYCNAVPRRQGFNYWGHGTQVTVSS”: the “polyreactivity (PSR sort gate)” value is “high polyreactivity”.
As to “QVQLVESGGGLVQAGGSLRLSSAASGFIFQKYVMGWSRQAPGKETEMVAVISRSGDSTRYADSVQGRFTISRDNAKNTVYLQMNSLKPEDTAVYYCAAASAKLTGTGYYYWGQGTQVTVSS”, the “polyreactivity (PSR sort gate)” value is “high polyreactivity”.
Then “QVQLVESGGGLVQAGGSLRLSSAASGFIFYDYAMGWYRQAPGKERALVAAIRSSDGGTYYADSVKGRFTISRDNAKNTVYLQMNSLKPEDTAVYYCAARPSYYDYDYWGQGTQVTVSS”, with “low polyreactivity”; and “QVQLVESGGGLVQAGGSLRLSSAASGFTFEFYAMGWYRQAPGKERELVAAITGSGGSTYYADSVKGRFTISRDNAKNTVYLQMNCLKPEDTAVYYWNAVTRRSAQVGHDYWGQVTQVTVSS”, with “high polyreactivity”.
The result for “QVQLVESGGGLVQAGGSLRLSSAASGFTFIRSTMGWYRQAPGKEREFVAAITWSGDSTYYADSVKGRFTISRDNAKNTVYLQMNSLKPEDTAVYYCAAESDPYSPEYDYWGQGTQVTVSS” reads “low polyreactivity”; that for “QVQLVESGGGLVQAGGSLRLSSAASGFTFKAYALGWYRQAPGTERELVAAITKSGGRTFYADSVKGRFTISRDNAKNTVYLQINCLNPEDTAVYYCSGRRWGYWTGYRGLDYDYWGQGTQVTVSS”, “high polyreactivity”.
The result for “QVQLVESGGGLVQAGGSLRLSSAASGFTFKYYAMGWYRQAPGKERELVARITGSSGSTYYADSVKGRFTISRDNAKNTVYLQMNSLKPEDTAVYYCAASFKFRYYRYGAYEYWGQGTQVTVSS” reads “high polyreactivity”; that for “QVQLVESGGGLVQAGGSLRLSSAASGFTFRAYTMGWYRQAPGKERELVAAISWSGSSTYYADSVKGRFTISRDTAKNTVYLQMNSLKPEDTAVYYCAARHWRRWFPYDYWGQGTQVTVSS”, “high polyreactivity”; that for “QVQLVESGGGLVQAGGSLRLSSAASGFTFTIYAMGWYRPAPGKERELVDTISTRGGNTYYADSVKGRFTISRDNAKNTVYLQMNSLKPEDTAVYYCAAEHWFPSAPWYYSDLHYYWGQGTQVTVSS”, “high polyreactivity”.
As to “QVQLVESGGGLVQAGGSLRLSSAASGFTFWYYAMGWYRQAPGKERELVAAITWNGGSTYYADSVKGRFTISRDNAKNTVYLQMNSLKPEDTAVYYCNAYSPFYPVPSEYDYWGQGTQVTVSS”, the “polyreactivity (PSR sort gate)” value is “high polyreactivity”.
The result for “QVQLVESGGGLVQAGGSLRLSSAASGIIFRGYVMGWYRQAPGKERELVAASTWSGGSTYYADSVKGRFTISRDNAKNTVYLQMNSLKPEDTAVYYCNAVRVRVTSHRIRQLDYGYWGQGTQVTVSS” reads “low polyreactivity”; that for “QVQLVESGGGLVQAGGSLRLSSAASGIIFRRYAMGWYRQAPGKERELVAAMSWSGGSTYYADSVKGRFTISRDNAKNTVYLQMNSLKPEDTAVYYCAAAAYTRDEYDYWGQGTQVTVSS”, “high polyreactivity”.
Take “QVQLVESGGGLVQAGGSLRLSSAASGITFLTNAMGWYRQAPGKERELVAAISGRGTRTYYADSVKGRFTISRDNAKKTVFLQMNRLKPEDTAVYYCAAVRRPVHYPYDYWGQGNQVTVSS”: the “polyreactivity (PSR sort gate)” value is recorded as “high polyreactivity”.
With “QVQLVESGGGLVQAGGSLRLSSAASGITFRRYAMGWYRQAPGKERELVASITSGGSTNYADSVKGRFTISRDNAKYTVYLQMNSLKPDDTAVYYCAADSRWGMDYWGQGTQVTVSS”, the “polyreactivity (PSR sort gate)” value is “high polyreactivity”.
The result for “QVQLVESGGGLVQAGGSLRLSSAASGITFSEYAMGRYRQAPGKERELVATITSGGSTNYADSVKGRFTISRDNAKNTVYLQMNSLKPEDTAVYYCNALDGTVDFSGWYDDWGQGTQVTVSS” reads “low polyreactivity”; that for “QVQLVESGGGLVQAGGSLRLSSAASGITFSKNAMGRYRQAPGKERELVAAISNSGGSTYYADSVKGRFTISRDNAKNTVYLQMNSVNPEDTAVYYCASDGGYAYGYNHWGQGTQVTVSS”, “low polyreactivity”.
The result for “QVQLVESGGGLVQAGGSLRLSSAASGLIYPVYAMGWYRQAPGKEREFVASIWRGGTTYYADSVKGRFTISRDNAKNTVYLQMTSLKPEDTAVYYCASRYYPRGLVFPFTKYDYWGLGTQVTVSS” reads “high polyreactivity”; that for “QVQLVESGGGLVQAGGSLRLSSAASGLTFFTYTMGWYRQAPGKERELVATINSSGGTTYYADSVKGRFTISRDNAKNTVYLQMNSLKPEDTAVYFCAKRFSPRYYYWGQGTQVTVSS”, “high polyreactivity”; that for “QVQLVESGGGLVQAGGSLRLSSAASGLTFKGYAIGWYRQEPGKESELVAANNGSGGSTYYADSVKRRFTISRDNAKNTVYLQMNSLKPEDTAVYYCNAARGHPYPLSDNVDDYDYWGQGTQVTVSS”, “low polyreactivity”.
The result for “QVQLVESGGGLVQAGGSLRLSSAASGRIFAVYAMGWYRQAPGKEREFVAAISYSGGITYYADSVKGRFTISRDNAKNTVYLQMNSLKPEDTAVYYCNAYYYFWGQGTQVTVSS” reads “low polyreactivity”.
Regarding “QVQLVESGGGLVQAGGSLRLSSAASGRIFPFNAMGWYRQAPGKERELVAAITSSGGRTYYADSVKGRFTISRDNAKNTVYLQMNSLTPEDTAVYYCAGTLVRRARSGPMGYWGQGTQVTVSS”, the “polyreactivity (PSR sort gate)” value is listed as “high polyreactivity”.
The result for “QVQLVESGGGLVQAGGSLRLSSAASGRIFRVNAMGLYTQAPGKERELVAAISRRGGSTYYADSVKGRFTISRDNAKNTVYLQMNTLKPEDTAVYYCAKKSYSYGYNSYYYWGQGTQVTVSS” reads “high polyreactivity”; that for “QVQLVESGGGLVQAGGSLRLSSAASGRIFSDYAMGWYRQAPGKERELVATITSGDSTNYADSVKGRFTISRDNAKNTVYLQMNSLKPEDTAVYYCNADRFADYDYWGQGTQVTVSS”, “low polyreactivity”; that for “QVQLVESGGGLVQAGGSLRLSSAASGRIFSIYAMGWYRQAPGKERELVAAITDRGGTTHYADSVKGRFTISRDYAKNTVYLQMNSLKPEDTAVYYCASDTYDYSSVEDFDYWGQGTQVTVSS”, “low polyreactivity”.
The result for “QVQLVESGGGLVQAGGSLRLSSAASGRIFSRNTMGCYRQAPGKERELVAAIRYSGGRTYYADSVKGRFTISRDNAKNTVYLQMNCLKQEDTAVYYCAARWYGQGVSYRMDYWGQGTQVTVSS” reads “high polyreactivity”.
